From the DeepSol protein solubility set come the findings set out here.

The nature of this data set: soluble on expression in E. coli; label from the status in PepcDB or PDB records.
Regarding “MVTKEQVVEALEGIVDPFLHKTLKETSAIKEVTVKPEKEHVSVKIAIVKTGTAEQMQLQSGIVKLVKELGAATVGLRFAEFTEEELAQFAPEQEEEQSESLLSPNSKTTFLAVASGKGGVGKSTVSVNLAVALARLGKKVGIIDADIYGFSVPDMMGIEKRPIVRGDKIIPVERLGVKVISMGFFVEDNAPVIWRGPMLGKMLNHFFTEVEWGDLDYLVLDLPPGTGDVALDVHSMLPSCKEIIVTTPHPTAAFVAARAGAMALRTEHSILGVVENMAYFESKVTGEKEYVFGKGGGDKLATELQTNVLGRIPLQQPDWNKEDFAPSVYEDTHTTGIIYSKIAETVIDKTAVTQK”, the “soluble on expression in E. coli” value is reported as “not soluble”.

Turning to “MVVISVIAIVLLLVYLDDKLGQFIFRNGRKTVVYPERRSDISLYINGRHLFSDYFAELGRARDHIHVLFYIIKNDETSAPFFQILKEKAAAGVKVRVLTDWVGSFGLPKALIRSLEESGVEFAYARKPRFPFFIYRLNRRNHRKITVIDGRVGYIGGFNIGREYNGKDANFGEWRDYHLKVNGEGVHDLQEQFLHDWEEATGRTVPDKHRYFPPLPAGAIRHQLVATNGAALEEQFIEVIRQAKKEIMIGSPYFIPSRPLFNELMQALRRGVRVTVLVPLKADHLFVKEAAYPYFYRLLKAGARIYRFYQGFYHAKTLVIDEEWCDVGTANFDRRSLFLNGEINCYVFDRGFTRLVKRAIERDLLRRRAADGRLLAKTFAS”, the “soluble on expression in E. coli” value is reported as “not soluble”.

Take “MVVLNPNNWHWVDKNTLPWSKDYLNGKLTSLSTVSSDGKSKIELTQVSSITGDSNVSQRKGKPICYFDLQLSMNVKVTNLDTNKDDEDDDGILADGKLEIPEFMHDESDIPILSQGFDAFDGLVRSEFVPKVVETLLKYQDDLIKEHSKDIQV”: the “soluble on expression in E. coli” value is given as “soluble”.

With “MVVLVTRSLLPALFFASRAPFAAATTSARFQRGLATMAAEAFTKHEVIPDVLASNPPSKVVSVKFNSGVEANLGNVLTPTQVKDTPEVKWDAEPGALYTLIKTDPDAPSRKEPTYREWHHWLVVNIPGNDIAKGDTLSEYIGAGPPPKTGLHRYVYLIYKQSGRIEDAEHGRLTNTSGDKRGGWKAADFVAKHKLGAPVFGNLFQAEYDDYVPILNKQLGA”, the “soluble on expression in E. coli” value is recorded as “not soluble”.

“MVVSDLKLRDMNEADRHAVGFVGFAAWRAGDAFDASYLDSYVVERVRGEFESFAKSPTGDVVVAEIDGVVVGWGACDAKPHHISDLWVDPNWQGKGIGKALIVHFLDRMRAEGLPLATIDTHARNRAAIGLYERCGFEIVWRGMEWSDIMKVELEKVKLEQKLSP”: the “soluble on expression in E. coli” value was “soluble”.

For “MVVTCPKCGAKNRLGTPPPGQVPVCGACKTPLPWVVEADEKGFAQEVAGAPLTLVDFFAPWCGPCRLVSPILEELARDHAGRLKVVKVNVDEHPGLAARYGVRSVPTLVLFRRGAPVATWVGASPRRVLEERLRPYLEGR”, the “soluble on expression in E. coli” value is recorded as “soluble”.

“MVVVTGREPDSRRQDGAMSSSDAEDDFLEPATPTATQAGHALPLLPQEFPEVVPLNIGGAHFTTRLSTLRCYEDTMLAAMFSGRHYIPTDSEGRYFIDRDGTHFGDVLNFLRSGDLPPRERVRAVYKEAQYYAIGPLLEQLENMQPLKGEKVRQAFLGLMPYYKDHLERIVEIARLRAVQRKARFAKLKVCVFKEEMPITPYECPLLNSLRFERSESDGQLFEHHCEVDVSFGPWEAVADVYDLLHCLVTDLSAQGLTVDHQCIGVCDKHLVNHYYCKRPIYEFKITW”: the “soluble on expression in E. coli” value is “soluble”.

On to “MVWSSETFGMTPEEQIEWMALDDQEKKKLERKRARNRQAATKCRQKKMDRIKELEEQVLHEKHRGQRLDAELLELNRALEHFRRTVEHHSGNGCPNNSIRV”, for which the “soluble on expression in E. coli” value is “not soluble”.

As for “MVYVAVLANIAGNFPALTAALEKIEELKEEGYEIEKYYILGNIVGLFPYPREVIEAIKNLAKTSNVKVIRGKYDQLIAMSDPHAGDPKYIDKLEIPDHLKATLKYTWEKLGHEGREYLRDLPIYLVDKIGKNEIFGVYGSPVNPFDGEILPDQPTSYYEAIMRPVKEYEMLLVASPRYPLDAMTMYGRVVCPGSIGFPPAREHKATFALVDAETLKVKFIEVEYDKKIIEDRIKLEKLPEEVIKILYHGGKA”, the “soluble on expression in E. coli” value is recorded as “soluble”.

As for “MWEANELSSTNTFSHQAEMDWPSANWWQRYQDAQLNHLIEEALQHSPSLCMAMARLKGAQGFARQAGAIRSFDLGLAASATESKVSERYQSATPPDGWNDYGTLTLNFQYDFDFWGKNRAAVVAATSELAAAEAESVAARLMISTSIANAYAELARLYANQETVHAALQVRNKTVELLEKRYANGLETLGSVSQAKAVAASVEAELLGIQESIQLQKNALAALVGQGPDRAASIEEPHITLTSRYGLPSEAGVGLLGHRADITAARWRAEAAAQQVGIAQAQFYPDVTLSAFIGYQAFGLDHLFDSGNDAGAIGPAIYLPLFTGGRLEGQLTSAEARYQEAVAQYNGTLVQALHEIADVVTSSQALQARINKTEQAVQQAEQALHIATNRYQGGLATYLDVLVAEESLLNNQRALVNLQSRAFSLDLALIHALGGGFETTES”, the “soluble on expression in E. coli” value was “soluble”.

As for “MWSCPTLNAPRAAQKWLPVRATPHLCVLHMSRLMLSSTLIDELSYVRKDQLETSALFELIAHRYERHSIAITANEPFSGWSDAMTVAAIDRLVHHSTIIEMNGESYRKRAAVARGASTQNANDEPEDPPNRSSLEHHHHHH”, the “soluble on expression in E. coli” value is “not soluble”.

For the sequence “MYAGINYDQLFGTEQVRERQLPLHSSQAQHFLNEVKPILDNRCVVCHACYDAPCQLKMTSAEGIDRGASKALVYQGTRLTAATPTRLYEDAQLTQEWRAAGFHPVLNERNQTAQANLDAGVMARLLMQKERHPLPQQDQLQGFDFSIDREQTCPTINEMDHFEQVNPNWGMPFGMPNLSPKEYTTLLSWLQEGAVMNQALPLSAQEQALVTEYEALLNHSSRKNQLAARYIYEHLFLSHLYFSEIAQERPRFFKLIRSSTPPGEPVKRIVTRRPYDDPGVERVYYRLVPEQETIVDKTHMPFALNKQRIANWKLWFIDADYEVAELPSYRPDIAANPMSAFIDLPVKARFKFLLDNAQNTVMAFIKGPVCRGQLALNVINDRFWVFFLDPEKADLPEVNEFYRSQVNNLKLPAEQENTALPLSNWVRYSLQQSRYLEAKSEFINQWFKNGTHLTTDIIWDGAGINPNAALTIFRHFDSASVVQGLVGEPPKTAWIMDYALLERIHYLLVAGFDVYGNFGHQLITRMFMDFLRMEGESNFVALLPRDMRHQELSSWYQNQSVQFSDFLQRNVKPFDQPTSVNYVTDNPKQELFAKLRKQVQSVLSDRYVITQTGFKAEHEFALRQIDHLRGEGLLPIPQLMMLMIESEQGKPQLFTLIHNNAHTNISSLFDEQNNRDPKNDNLTLVRGVVGSYPSAYLTLKENQIPELYQRLAAMKSEQDYVALLDRFAVRRSSPEFWAFSDLVHQWYRQDQPIEFGLLDYNRFENRLEHHHHHH”, the “soluble on expression in E. coli” value is “not soluble”.

Consider “MYCTIDDLLGQIDKSKLIELTNDRADPAVDENGQEIIHEGNANSAIEAATAVVNTYIAMRYPVPLSPVPKIVSKLTADIAIYNLFTRHYNDEDNVFVRRYRDAIRLLEKIAADEVKLTANESGIRTYARRKVFGEDFRRMYD”, for which the “soluble on expression in E. coli” value was “not soluble”.

In the case of “MYDLLVIGAGPGGYVAAIRAAQLGMKVGVVEKEKALGGTCLRVGCIPSKALLETTERIYEAKKGLLGAKVKGVELDLPALMAHKDKVVQANTQGVEFLFKKNGIARHQGTARFLSERKVLVEETGEELEARYILIATGSAPLIPPWAQVDYERVVTSTEALSFPEVPKRLIVVGGGVIGLELGVVWHRLGAEVIVLEYMDRILPTMDLEVSRAAERVFKKQGLTIRTGVRVTAVVPEAKGARVELEGARSWKTDRVLVAVGRRPYTEGLSLENAGLSTDERGRIPVDEHLRTRVPHIYAIGDVVRGPMLAHKASEEGIAAVEHMVRGFGHVDYQAIPSVVYTHPEIAAVGYTEEELKAQGIPYKVGKFPYSASGRARAMGETEGFIKVLAHAKTDRILGVHGIGARVGDVLAEAALALFFKASAEDLGRAPHAHPSLSEILKEAALAAWERPIHL”, the “soluble on expression in E. coli” value was “soluble”.

Regarding “MYEAIGHRVEDGVAEITIKLPRHRNALSVKAMQEVTDALNRAEEDDSVGAVMITGAEDAFCAGFYLREIPLDKGVAGVRDHFRIAALWWHQMIHKIIRVKRPVLAAINGVAAGGGLGISLASDMAICADSAKFVCAWHTIGIGNDTATSYSLARIVGMRRAMELMLTNRTLYPEEAKDWGLVSRVYPKDEFREVAWKVARELAAAPTHLQVMAKERFHAGWMQPVEECTEFEIQNVIASVTHPHFMPCLTRFLDGHRADRPQVELPAGV”, the “soluble on expression in E. coli” value is “soluble”.
